One block for each substance: values may come before it.
Biological target: zTNF4 (UniProt Q9Y275)
Experiment: cell-based or functional assay

Atacicept, sequence (chain): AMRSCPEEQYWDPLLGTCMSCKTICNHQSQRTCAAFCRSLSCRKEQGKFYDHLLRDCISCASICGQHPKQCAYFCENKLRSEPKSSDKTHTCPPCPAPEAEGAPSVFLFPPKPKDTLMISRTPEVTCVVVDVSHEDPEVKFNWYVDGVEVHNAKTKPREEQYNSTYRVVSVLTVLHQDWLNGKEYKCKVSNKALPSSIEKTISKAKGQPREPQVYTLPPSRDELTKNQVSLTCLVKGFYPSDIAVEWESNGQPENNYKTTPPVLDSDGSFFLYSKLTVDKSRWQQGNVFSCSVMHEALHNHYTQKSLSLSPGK

Biological activity (U/mL); Atacicept 25/1; 1 Mo +5° C.: 137000 U/mL
Biological activity (U/mL); Atacicept 25/1; 1 Mo+25° C.: 134000 U/mL
Biological activity (U/mL); Atacicept 25/1; 2 Mo +5° C.: 135000 U/mL
Biological activity (U/mL); Atacicept 25/1; 2 Mo+25° C.: 125000 U/mL
Biological activity (U/mL); Atacicept 25/1; 3 Mo +5° C.: 136000 U/mL
Biological activity (U/mL); Atacicept 25/1; 3 Mo+25° C.: 132000 U/mL
Biological activity (U/mL); Atacicept 25/1; 6 Mo +5° C.: 127000 U/mL
Biological activity (U/mL); Atacicept 25/1; 6 Mo+25° C.: 118000 U/mL
Biological activity (U/mL); Atacicept 25/1; 9 Mo +5° C.: 147000 U/mL
Biological activity (U/mL); Atacicept 25/1; 12 Mo +5° C.: 131000 U/mL
Biological activity (U/mL); Atacicept 25/1; 18 Mo +5° C.: 108000 U/mL
Biological activity (U/mL); Atacicept 25/1; Zero Time (5° C. block): 140000 U/mL
Biological activity (U/mL); Atacicept 25/1; Zero Time (25° C. block): 140000 U/mL
Biological activity (U/mL); Atacicept 25/1.2; 1 Mo +5° C.: 116000 U/mL
Biological activity (U/mL); Atacicept 25/1.2; 1 Mo+25° C.: 114000 U/mL
Biological activity (U/mL); Atacicept 25/1.2; 2 Mo +5° C.: 126000 U/mL
Biological activity (U/mL); Atacicept 25/1.2; 2 Mo+25° C.: 118000 U/mL
Biological activity (U/mL); Atacicept 25/1.2; 3 Mo +5° C.: 122000 U/mL
Biological activity (U/mL); Atacicept 25/1.2; 3 Mo+25° C.: 114000 U/mL
Biological activity (U/mL); Atacicept 25/1.2; 6 Mo +5° C.: 115000 U/mL
Biological activity (U/mL); Atacicept 25/1.2; 6 Mo+25° C.: 103000 U/mL
Biological activity (U/mL); Atacicept 25/1.2; 9 Mo +5° C.: 124000 U/mL
Biological activity (U/mL); Atacicept 25/1.2; 12 Mo +5° C.: 106000 U/mL
Biological activity (U/mL); Atacicept 25/1.2; 18 Mo +5° C.: 113000 U/mL
Biological activity (U/mL); Atacicept 25/1.2; Zero Time (5° C. block): 112000 U/mL
Biological activity (U/mL); Atacicept 25/1.2; Zero Time (25° C. block): 112000 U/mL
Biological activity (U/mL); Atacicept 75/1; 1 Mo +5° C.: 410000 U/mL
Biological activity (U/mL); Atacicept 75/1; 1 Mo+25° C.: 388000 U/mL
Biological activity (U/mL); Atacicept 75/1; 2 Mo +5° C.: 380000 U/mL
Biological activity (U/mL); Atacicept 75/1; 2 Mo+25° C.: 337000 U/mL
Biological activity (U/mL); Atacicept 75/1; 3 Mo +5° C.: 374000 U/mL
Biological activity (U/mL); Atacicept 75/1; 3 Mo+25° C.: 365000 U/mL
Biological activity (U/mL); Atacicept 75/1; 6 Mo +5° C.: 364000 U/mL
Biological activity (U/mL); Atacicept 75/1; 6 Mo+25° C.: 328000 U/mL
Biological activity (U/mL); Atacicept 75/1; 9 Mo +5° C.: 468000 U/mL
Biological activity (U/mL); Atacicept 75/1; 12 Mo +5° C.: 346000 U/mL
Biological activity (U/mL); Atacicept 75/1; Zero Time (5° C. block): 423000 U/mL
Biological activity (U/mL); Atacicept 75/1; Zero Time (25° C. block): 423000 U/mL
Biological activity (U/mL); Atacicept 150/1; 1 Mo +5° C.: 775000 U/mL
Biological activity (U/mL); Atacicept 150/1; 1 Mo+25° C.: 777000 U/mL
Biological activity (U/mL); Atacicept 150/1; 2 Mo +5° C.: 755000 U/mL
Biological activity (U/mL); Atacicept 150/1; 2 Mo+25° C.: 720000 U/mL
Biological activity (U/mL); Atacicept 150/1; 3 Mo +5° C.: 819000 U/mL
Biological activity (U/mL); Atacicept 150/1; 3 Mo+25° C.: 761000 U/mL
Biological activity (U/mL); Atacicept 150/1; 6 Mo +5° C.: 815000 U/mL
Biological activity (U/mL); Atacicept 150/1; 6 Mo+25° C.: 677000 U/mL
Biological activity (U/mL); Atacicept 150/1; 9 Mo +5° C.: 843000 U/mL
Biological activity (U/mL); Atacicept 150/1; 12 Mo +5° C.: 810000 U/mL
Biological activity (U/mL); Atacicept 150/1; 18 Mo +5° C.: 565000 U/mL
Biological activity (U/mL); Atacicept 150/1; Zero Time (5° C. block): 836000 U/mL
Biological activity (U/mL); Atacicept 150/1; Zero Time (25° C. block): 836000 U/mL
Biological activity (U/mL); Atacicept 150/1.2; 1 Mo +5° C.: 643000 U/mL
Biological activity (U/mL); Atacicept 150/1.2; 1 Mo+25° C.: 695000 U/mL
Biological activity (U/mL); Atacicept 150/1.2; 2 Mo +5° C.: 743000 U/mL
Biological activity (U/mL); Atacicept 150/1.2; 2 Mo+25° C.: 697000 U/mL
Biological activity (U/mL); Atacicept 150/1.2; 3 Mo +5° C.: 695000 U/mL
Biological activity (U/mL); Atacicept 150/1.2; 3 Mo+25° C.: 607000 U/mL
Biological activity (U/mL); Atacicept 150/1.2; 6 Mo +5° C.: 645000 U/mL
Biological activity (U/mL); Atacicept 150/1.2; 6 Mo+25° C.: 587000 U/mL
Biological activity (U/mL); Atacicept 150/1.2; 9 Mo +5° C.: 714000 U/mL
Biological activity (U/mL); Atacicept 150/1.2; 12 Mo +5° C.: 620000 U/mL
Biological activity (U/mL); Atacicept 150/1.2; 18 Mo +5° C.: 551000 U/mL
Biological activity (U/mL); Atacicept 150/1.2; Zero Time (5° C. block): 647000 U/mL
Biological activity (U/mL); Atacicept 150/1.2; Zero Time (25° C. block): 647000 U/mL
Substance: Atacicept (Fc fusion)

Bioassay (U/mL); 21A, 70 mg/mL; 2-8° C.; 4 w: 366000 U/mL
Bioassay (U/mL); 21A, 70 mg/mL; 2-8° C.; 8 w: 319000 U/mL
Bioassay (U/mL); 21A, 70 mg/mL; 2-8° C.; 13 w: 388000 U/mL
Bioassay (U/mL); 21A, 70 mg/mL; 2-8° C.; time 0: 348000 U/mL
Bioassay (U/mL); 21A, 70 mg/mL; 25° C.; 4 w: 312000 U/mL
Bioassay (U/mL); 21A, 70 mg/mL; 25° C.; 8 w: 279000 U/mL
Bioassay (U/mL); 21A, 70 mg/mL; 25° C.; 13 w: 305000 U/mL
Bioassay (U/mL); 21A, 70 mg/mL; 25° C.; time 0: 348000 U/mL
Bioassay (U/mL); 21B, 70 mg/mL; 2-8° C.; 4 w: 318000 U/mL
Bioassay (U/mL); 21B, 70 mg/mL; 2-8° C.; 8 w: 290000 U/mL
Bioassay (U/mL); 21B, 70 mg/mL; 2-8° C.; 13 w: 358000 U/mL
Bioassay (U/mL); 21B, 70 mg/mL; 2-8° C.; time 0: 336000 U/mL
Bioassay (U/mL); 21B, 70 mg/mL; 25° C.; 4 w: 302000 U/mL
Bioassay (U/mL); 21B, 70 mg/mL; 25° C.; 8 w: 268000 U/mL
Bioassay (U/mL); 21B, 70 mg/mL; 25° C.; 13 w: 343000 U/mL
Bioassay (U/mL); 21B, 70 mg/mL; 25° C.; time 0: 336000 U/mL
Bioassay (U/mL); 21C, 70 mg/mL; 2-8° C.; 4 w: 334000 U/mL
Bioassay (U/mL); 21C, 70 mg/mL; 2-8° C.; 8 w: 307000 U/mL
Bioassay (U/mL); 21C, 70 mg/mL; 2-8° C.; 13 w: 335000 U/mL
Bioassay (U/mL); 21C, 70 mg/mL; 2-8° C.; time 0: 323000 U/mL
Bioassay (U/mL); 21C, 70 mg/mL; 25° C.; 4 w: 316000 U/mL
Bioassay (U/mL); 21C, 70 mg/mL; 25° C.; 8 w: 269000 U/mL
Bioassay (U/mL); 21C, 70 mg/mL; 25° C.; 13 w: 318000 U/mL
Bioassay (U/mL); 21C, 70 mg/mL; 25° C.; time 0: 323000 U/mL
Bioassay (U/mL); 21D, 100 mg/mL; 2-8° C.; 4 w: 452000 U/mL
Bioassay (U/mL); 21D, 100 mg/mL; 2-8° C.; 8 w: 432000 U/mL
Bioassay (U/mL); 21D, 100 mg/mL; 2-8° C.; 13 w: 490000 U/mL
Bioassay (U/mL); 21D, 100 mg/mL; 2-8° C.; time 0: 461000 U/mL
Bioassay (U/mL); 21D, 100 mg/mL; 25° C.; 4 w: 509000 U/mL
Bioassay (U/mL); 21D, 100 mg/mL; 25° C.; 8 w: 431000 U/mL
Bioassay (U/mL); 21D, 100 mg/mL; 25° C.; 13 w: 419000 U/mL
Bioassay (U/mL); 21D, 100 mg/mL; 25° C.; time 0: 461000 U/mL
Bioassay (U/mL); 21E, 100 mg/mL; 2-8° C.; 4 w: 439000 U/mL
Bioassay (U/mL); 21E, 100 mg/mL; 2-8° C.; 8 w: 436000 U/mL
Bioassay (U/mL); 21E, 100 mg/mL; 2-8° C.; 13 w: 470000 U/mL
Bioassay (U/mL); 21E, 100 mg/mL; 2-8° C.; time 0: 459000 U/mL
Bioassay (U/mL); 21E, 100 mg/mL; 25° C.; 4 w: 442000 U/mL
Bioassay (U/mL); 21E, 100 mg/mL; 25° C.; 8 w: 396000 U/mL
Bioassay (U/mL); 21E, 100 mg/mL; 25° C.; 13 w: 405000 U/mL
Bioassay (U/mL); 21E, 100 mg/mL; 25° C.; time 0: 459000 U/mL
Bioassay (U/mL); 21F, 100 mg/mL; 2-8° C.; 4 w: 470000 U/mL
Bioassay (U/mL); 21F, 100 mg/mL; 2-8° C.; 8 w: 407000 U/mL
Bioassay (U/mL); 21F, 100 mg/mL; 2-8° C.; 13 w: 424000 U/mL
Bioassay (U/mL); 21F, 100 mg/mL; 2-8° C.; time 0: 456000 U/mL
Bioassay (U/mL); 21F, 100 mg/mL; 25° C.; 4 w: 449000 U/mL
Bioassay (U/mL); 21F, 100 mg/mL; 25° C.; 8 w: 387000 U/mL
Bioassay (U/mL); 21F, 100 mg/mL; 25° C.; 13 w: 476000 U/mL
Bioassay (U/mL); 21F, 100 mg/mL; 25° C.; time 0: 456000 U/mL
Bioassay (U/mL); 21G, 100 mg/mL; 2-8° C.; 4 w: 543000 U/mL
Bioassay (U/mL); 21G, 100 mg/mL; 2-8° C.; 8 w: 401000 U/mL
Bioassay (U/mL); 21G, 100 mg/mL; 2-8° C.; 13 w: 445000 U/mL
Bioassay (U/mL); 21G, 100 mg/mL; 2-8° C.; time 0: 494000 U/mL
Bioassay (U/mL); 21G, 100 mg/mL; 25° C.; 4 w: 497000 U/mL
Bioassay (U/mL); 21G, 100 mg/mL; 25° C.; 8 w: 433000 U/mL
Bioassay (U/mL); 21G, 100 mg/mL; 25° C.; 13 w: 441000 U/mL
Bioassay (U/mL); 21G, 100 mg/mL; 25° C.; time 0: 494000 U/mL
Bioassay (U/mL); 21H, 100 mg/mL; 2-8° C.; 4 w: 446000 U/mL
Bioassay (U/mL); 21H, 100 mg/mL; 2-8° C.; 8 w: 388000 U/mL
Bioassay (U/mL); 21H, 100 mg/mL; 2-8° C.; 13 w: 445000 U/mL
Bioassay (U/mL); 21H, 100 mg/mL; 2-8° C.; time 0: 472000 U/mL
Bioassay (U/mL); 21H, 100 mg/mL; 25° C.; 4 w: 465000 U/mL
Bioassay (U/mL); 21H, 100 mg/mL; 25° C.; 8 w: 366000 U/mL
Bioassay (U/mL); 21H, 100 mg/mL; 25° C.; 13 w: 434000 U/mL
Bioassay (U/mL); 21H, 100 mg/mL; 25° C.; time 0: 472000 U/mL
Substance: TACI-Fc5 (Fc fusion)

Source: patent publication US20100297122A1
